According to US20040106545A1 (MCGILL UNIVERSITY, published 2004):
Positions of bridges follow the written chain, without caps; N, C: chain ends.

T1: chick N-cadherin expressed on transfected 3T3 cells (chick, UniProt P10288 165-912)
T1 sequence (looked up): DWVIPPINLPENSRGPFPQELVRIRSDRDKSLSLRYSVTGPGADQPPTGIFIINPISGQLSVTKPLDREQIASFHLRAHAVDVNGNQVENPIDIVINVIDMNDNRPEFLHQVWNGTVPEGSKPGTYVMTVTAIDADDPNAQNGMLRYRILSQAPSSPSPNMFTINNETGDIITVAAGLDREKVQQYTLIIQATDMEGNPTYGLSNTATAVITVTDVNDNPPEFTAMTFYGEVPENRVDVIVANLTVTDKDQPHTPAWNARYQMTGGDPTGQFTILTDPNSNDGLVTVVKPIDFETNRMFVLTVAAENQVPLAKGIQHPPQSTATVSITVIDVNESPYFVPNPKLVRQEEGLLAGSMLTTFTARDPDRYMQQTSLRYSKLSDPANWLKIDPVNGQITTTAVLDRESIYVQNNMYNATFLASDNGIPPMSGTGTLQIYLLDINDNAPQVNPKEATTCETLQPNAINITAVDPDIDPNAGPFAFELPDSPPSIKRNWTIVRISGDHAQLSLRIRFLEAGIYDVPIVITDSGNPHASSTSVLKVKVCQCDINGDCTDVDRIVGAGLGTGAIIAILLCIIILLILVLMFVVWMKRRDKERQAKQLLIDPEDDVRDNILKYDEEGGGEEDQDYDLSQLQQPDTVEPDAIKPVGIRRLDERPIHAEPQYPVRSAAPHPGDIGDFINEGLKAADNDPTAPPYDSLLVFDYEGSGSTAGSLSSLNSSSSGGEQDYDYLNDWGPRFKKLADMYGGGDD

T2: E-cadherin on Madin Darby canine kidney (MDCK) cells (canine (MDCK cells), UniProt F1PAA9 157-885)
T2 sequence (looked up): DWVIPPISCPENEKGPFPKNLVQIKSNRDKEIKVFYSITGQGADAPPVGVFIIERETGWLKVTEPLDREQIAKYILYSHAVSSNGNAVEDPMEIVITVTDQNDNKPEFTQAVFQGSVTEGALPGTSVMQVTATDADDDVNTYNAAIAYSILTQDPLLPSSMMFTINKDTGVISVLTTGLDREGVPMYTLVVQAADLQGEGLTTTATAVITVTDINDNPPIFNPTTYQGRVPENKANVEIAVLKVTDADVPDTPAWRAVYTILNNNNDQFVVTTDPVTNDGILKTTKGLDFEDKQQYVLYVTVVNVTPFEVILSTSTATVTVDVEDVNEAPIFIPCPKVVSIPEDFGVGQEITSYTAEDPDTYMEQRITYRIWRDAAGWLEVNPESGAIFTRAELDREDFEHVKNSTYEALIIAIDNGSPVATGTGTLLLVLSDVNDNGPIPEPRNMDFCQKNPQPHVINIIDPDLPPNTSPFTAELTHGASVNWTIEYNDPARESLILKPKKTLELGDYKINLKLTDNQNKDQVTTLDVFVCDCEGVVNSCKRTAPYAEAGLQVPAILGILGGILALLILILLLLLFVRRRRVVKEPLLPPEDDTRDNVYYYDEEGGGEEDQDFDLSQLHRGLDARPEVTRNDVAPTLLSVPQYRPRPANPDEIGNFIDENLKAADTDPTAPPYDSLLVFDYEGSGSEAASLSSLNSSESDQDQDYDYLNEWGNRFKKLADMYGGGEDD

B1: H-CAHAVDC-NH2 (peptide)
peptide: H-CAHAVDC-NH2
modifications: disulfide 1-7
SMILES: CC(C)[C@@H]1NC(=O)[C@H](C)NC(=O)[C@H](Cc2c[nH]cn2)NC(=O)[C@H](C)NC(=O)[C@@H](N)CSSC[C@@H](C(N)=O)NC(=O)[C@H](CC(=O)O)NC1=O
B2: N-Ac-S-CHAVC-NH2 (peptide)
peptide: Ac-SCHAVC-NH2
modifications: disulfide 2-6
SMILES: CC(=O)N[C@@H](CO)C(=O)N[C@H]1CSSC[C@@H](C(N)=O)NC(=O)[C@H](C(C)C)NC(=O)[C@H](C)NC(=O)[C@H](Cc2c[nH]cn2)NC1=O
B3: N-Ac-YCHAVC-NH2 (peptide)
peptide: Ac-YCHAVC-NH2
modifications: disulfide 2-6
SMILES: CC(=O)N[C@@H](Cc1ccc(O)cc1)C(=O)N[C@H]1CSSC[C@@H](C(N)=O)NC(=O)[C@H](C(C)C)NC(=O)[C@H](C)NC(=O)[C@H](Cc2c[nH]cn2)NC1=O

biological target: T1, chick N-cadherin expressed on …; experiment: cell-based or functional assay

% inhibition of N-cadherin dependent neurite outgrowth (peptide 250 µg/mL)	Binder
1.3%	B1
11%	Ac-CSHAVC-NH2 (disulfide 1-6 (inferred)) [N-Ac-CSHAVC-NH2]
1.7%	H-CHAVC-NH2 (disulfide 1-5 (inferred)) [H-CHAVC-NH2]
-3.7%	H-CAHAVDIC-NH2 (disulfide 1-8 (inferred)) [H-CAHAVDIC-NH2]
68.2%	Ac-CHAVC-NH2 (disulfide 1-5 (inferred)) [N-Ac-CHAVC-NH2]
88.4%	Ac-CHAVDC-NH2 (disulfide 1-6 (inferred)) [N-Ac-CHAVDC-NH2]

biological target: T1, chick N-cadherin expressed on …; experiment: cell-based or functional assay; remark: another data set of the same source

EC50 for inhibition of the N-cadherin response (neurite outgrowth)	EC50 for inhibition of neurite outgrowth	Binder
220 µM		Ac-CHAVC-NH2 (disulfide 1-5 (inferred)) [N-Ac-CHAVC-NH2]
	120 µM	Ac-CHAVCY-NH2 (disulfide 1-5 (inferred)) [N-Ac-CHAVC-Y-NH2]
	80 µM	Ac-CHAVYC-NH2 (disulfide 1-6 (inferred)) [N-Ac-CHAVYC-NH2]

biological target: T1, chick N-cadherin expressed on …; experiment: cell-based or functional assay; remark: another data set of the same source

Percent Inhibition of N-cadherin dependent neurite outgrowth (peptide 250 µg/ml)	Binder
1.3%	B1
1.7%	H-CHAVC-NH2 (disulfide 1-5 (inferred)) [H-CHAVC-NH2]
-3.7%	H-CAHAVDIC-NH2 (disulfide 1-8 (inferred)) [H-CAHAVDIC-NH2]
68.2%	Ac-CHAVC-NH2 (disulfide 1-5 (inferred)) [N-Ac-CHAVC-NH2]

biological target: T1, chick N-cadherin expressed on …; experiment: cell-based or functional assay; remark: another data set of the same source

% inhibition of neurite outgrowth (peptide 125 µg/mL)	EC50 for inhibition of neurite outgrowth	Binder
88.3%	60 µM	Ac-CHAVDIC-NH2 (disulfide 1-7 (inferred)) [N-Ac-CHAVDIC-NH2]
62%	70 µM	Ac-CHAVDINC-NH2 (disulfide 1-8 (inferred)) [N-Ac-CHAVDINC-NH2]
64.9%	128 µM	Ac-CHAVYC-NH2 (disulfide 1-6 (inferred)) [N-Ac-CHAVYC-NH2]
77.1%	93 µM	Ac-CHAVDC-NH2 (disulfide 1-6 (inferred)) [N-Ac-CHAVDC-NH2]

biological target: human L1 expressed on transfected 3T3 cells (human, UniProt P32004 20-1257); experiment: cell-based or functional assay
Sequence (P32004 20-1257): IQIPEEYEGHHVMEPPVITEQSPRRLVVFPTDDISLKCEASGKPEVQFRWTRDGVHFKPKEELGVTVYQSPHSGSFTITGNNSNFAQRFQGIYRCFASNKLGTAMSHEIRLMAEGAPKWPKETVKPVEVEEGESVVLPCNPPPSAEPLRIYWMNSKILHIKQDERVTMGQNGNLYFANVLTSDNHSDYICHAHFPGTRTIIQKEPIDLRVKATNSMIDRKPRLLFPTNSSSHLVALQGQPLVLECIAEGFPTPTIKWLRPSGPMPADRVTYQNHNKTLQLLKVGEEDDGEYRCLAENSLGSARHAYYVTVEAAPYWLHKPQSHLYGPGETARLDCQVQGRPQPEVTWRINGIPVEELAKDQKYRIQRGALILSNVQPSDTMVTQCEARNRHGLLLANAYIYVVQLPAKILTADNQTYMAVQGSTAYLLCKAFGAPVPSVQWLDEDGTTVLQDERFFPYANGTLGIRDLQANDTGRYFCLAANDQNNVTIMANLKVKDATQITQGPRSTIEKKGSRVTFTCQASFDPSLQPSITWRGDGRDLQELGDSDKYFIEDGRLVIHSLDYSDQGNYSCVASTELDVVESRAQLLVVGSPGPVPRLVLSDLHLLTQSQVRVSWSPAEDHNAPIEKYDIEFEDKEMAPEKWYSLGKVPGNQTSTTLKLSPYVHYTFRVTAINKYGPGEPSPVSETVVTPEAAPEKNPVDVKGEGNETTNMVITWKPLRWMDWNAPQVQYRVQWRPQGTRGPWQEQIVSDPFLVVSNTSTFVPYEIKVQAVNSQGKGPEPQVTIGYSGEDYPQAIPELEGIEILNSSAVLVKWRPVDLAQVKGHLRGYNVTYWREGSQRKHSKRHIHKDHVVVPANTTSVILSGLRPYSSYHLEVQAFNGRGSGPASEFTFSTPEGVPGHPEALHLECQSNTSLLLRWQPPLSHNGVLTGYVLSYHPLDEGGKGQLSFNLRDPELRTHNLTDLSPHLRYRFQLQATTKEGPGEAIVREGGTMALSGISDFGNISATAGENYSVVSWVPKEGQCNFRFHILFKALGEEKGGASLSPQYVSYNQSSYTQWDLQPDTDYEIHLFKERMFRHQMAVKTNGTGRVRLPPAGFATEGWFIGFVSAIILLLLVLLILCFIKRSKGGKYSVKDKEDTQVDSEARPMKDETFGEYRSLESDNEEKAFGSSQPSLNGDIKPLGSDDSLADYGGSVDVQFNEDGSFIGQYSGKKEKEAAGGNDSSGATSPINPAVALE

% Inhibition of L1 Response (peptide 125 µg/ml)	Binder
6%	Ac-CHAVDIC-NH2 (disulfide 1-7 (inferred)) [N-Ac-CHAVDIC-NH2]
1.7%	Ac-CHAVDINC-NH2 (disulfide 1-8 (inferred)) [N-Ac-CHAVDINC-NH2]
41.6%	Ac-CHAVC-NH2 (disulfide 1-5 (inferred)) [N-Ac-CHAVC-NH2]
9.6%	Ac-CHAVDC-NH2 (disulfide 1-6 (inferred)) [N-Ac-CHAVDC-NH2]

biological target: T1, chick N-cadherin expressed on …; experiment: cell-based or functional assay; remark: another data set of the same source

% Inhibition of N-Cadherin Response (peptide 125 µg/ml)	Binder
88.3%	Ac-CHAVDIC-NH2 (disulfide 1-7 (inferred)) [N-Ac-CHAVDIC-NH2]
62%	Ac-CHAVDINC-NH2 (disulfide 1-8 (inferred)) [N-Ac-CHAVDINC-NH2]
33.2%	Ac-CHAVC-NH2 (disulfide 1-5 (inferred)) [N-Ac-CHAVC-NH2]
77.1%	Ac-CHAVDC-NH2 (disulfide 1-6 (inferred)) [N-Ac-CHAVDC-NH2]

biological target: T2, E-cadherin on Madin Darby canine kidney …; experiment: cell-based or functional assay

EC50, decrease of electrical resistance across MDCK cell monolayer	Binder
490 µM	Ac-CHAVCS-NH2 (disulfide 1-5 (inferred)) [N-Ac-CHAVC-S-NH2]
480 µM	Ac-CHAVCT-NH2 (disulfide 1-5 (inferred)) [N-Ac-CHAVC-T-NH2]
430 µM	Ac-CHAVCSS-NH2 (disulfide 1-5 (inferred)) [N-Ac-CHAVC-SS-NH2]
470 µM	Ac-CHAVCD-NH2 (disulfide 1-5 (inferred)) [N-Ac-CHAVC-D-NH2]
490 µM	B2
210 µM	Ac-CHAVCY-NH2 (disulfide 1-5 (inferred)) [N-Ac-CHAVC-Y-NH2]

biological target: T2, E-cadherin on Madin Darby canine kidney …; experiment: cell-based or functional assay; remark: another data set of the same source

EC50, decrease of electrical resistance across MDCK cell monolayer	Binder
20 µM	Ac-CSHAVC-NH2 (disulfide 1-6 (inferred)) [N-Ac-CSHAVC-NH2]
270 µM	Ac-CHAVC-NH2 (disulfide 1-5 (inferred)) [N-Ac-CHAVC-NH2]
22 µM	Ac-CFSHAVC-NH2 (disulfide 1-7 (inferred)) [N-Ac-CFSHAVC-NH2]

biological target: N-cadherin expressed on transfected 3T3 cells (Examples 2 and 21); experiment: cell-based or functional assay

% Inhibition of neurite outgrowth, 250 µg/mL (rat neurons)	Binder
0%	B1
0%	Ac-CSHAVC-NH2 (disulfide 1-6 (inferred)) [N-Ac-CSHAVC-NH2]
0%	H-CHAVC-NH2 (disulfide 1-5 (inferred)) [H-CHAVC-NH2]
0%	H-CAHAVDIC-NH2 (disulfide 1-8 (inferred)) [H-CAHAVDIC-NH2]
65%	Ac-CHAVC-NH2 (disulfide 1-5 (inferred)) [N-Ac-CHAVC-NH2]
88%	Ac-CHAVDC-NH2 (disulfide 1-6 (inferred)) [N-Ac-CHAVDC-NH2]

biological target: T1, chick N-cadherin expressed on …; experiment: cell-based or functional assay; remark: another data set of the same source

Percent Inhibition of N-cadherin dependent neurite outgrowth (peptide 250 µg/ml)	Binder
6.9%	Ac-CHAVCS-NH2 (disulfide 1-5 (inferred)) [N-Ac-CHAVC-S-NH2]
23.7%	Ac-CHAVCT-NH2 (disulfide 1-5 (inferred)) [N-Ac-CHAVC-T-NH2]
32.5%	Ac-CHAVCE-NH2 (disulfide 1-5 (inferred)) [N-Ac-CHAVC-E-NH2]
37.8%	Ac-CHAVCSS-NH2 (disulfide 1-5 (inferred)) [N-Ac-CHAVC-SS-NH2]
3.3%	Ac-CHAVCD-NH2 (disulfide 1-5 (inferred)) [N-Ac-CHAVC-D-NH2]
10.6%	B3
